This note sets out measurements from article PMC6754406 (2019).

The chains are these.
B1: p115-CTD (p115, a.a. 780-930) (domain or fragment)
chain: SARDSEQVAELKQELATLKSQLNSQSVEITKLQTEKQELLQKTEAFAKSVEVQGETETIIATKTTDVEGRLSALLQETKELKNEIKALSEERTAIKEQLDSSNSTIAILQTEKDKLELEITDSKKEQDDLLVLLADQDQKILSLKNKLKDL
B2: GM130-S25D (phosphomimetic GM130 (1-85) mutant), non-tagged (domain or fragment)
chain: MSEETRQSKLAAAKKKLREYQQRNDPGVPTGAKKKKKIKNGSNPETTTSGGCHSPEDTPKDNAATLQPSDDTVLPGGVPSPGASL
B3: GM130-WT (wild type GM130 N-terminal region, a.a. 1-85), non-tagged (domain or fragment)
chain: B2 chain with D25S

In assay [1] the target is B3. Briefly: ITC. (In general: ITC needs no label: the signal is the heat of the interaction.)
In assay [2] the target is B2. Briefly: ITC.
Assay [3] has as its target T1, Importin-α FL (full-length Importin-α), recombinant (human, UniProt P52292 1-529). Briefly: ITC; phospho-S25.
Assay [4] addresses Importin-β, recombinant, non-tagged (human, UniProt Q14974 1-876). Briefly: ITC; phospho-S25.
Assay [5] addresses Importin-α(ΔIBB) (Importin-α lacking the IBB domain, a.a. 70-524) (mouse, UniProt P52293 70-524). Briefly: ITC; 200 mM NaCl.
The target of assay [6] is T1, Importin-α FL (full-length Importin-α), …. Briefly: ITC.

Changes are numbered by the printed parent chain. Names and notes keep the numbering of the source. Where no end group is shown, it is not given here. [ ]: non-standard residue; d: D form. pS = N[C@@H](COP(=O)(O)O)C(=O)O

Importin-β, recombinant, non-tagged, sequence (Q14974 whole entry, the tested form may be a part): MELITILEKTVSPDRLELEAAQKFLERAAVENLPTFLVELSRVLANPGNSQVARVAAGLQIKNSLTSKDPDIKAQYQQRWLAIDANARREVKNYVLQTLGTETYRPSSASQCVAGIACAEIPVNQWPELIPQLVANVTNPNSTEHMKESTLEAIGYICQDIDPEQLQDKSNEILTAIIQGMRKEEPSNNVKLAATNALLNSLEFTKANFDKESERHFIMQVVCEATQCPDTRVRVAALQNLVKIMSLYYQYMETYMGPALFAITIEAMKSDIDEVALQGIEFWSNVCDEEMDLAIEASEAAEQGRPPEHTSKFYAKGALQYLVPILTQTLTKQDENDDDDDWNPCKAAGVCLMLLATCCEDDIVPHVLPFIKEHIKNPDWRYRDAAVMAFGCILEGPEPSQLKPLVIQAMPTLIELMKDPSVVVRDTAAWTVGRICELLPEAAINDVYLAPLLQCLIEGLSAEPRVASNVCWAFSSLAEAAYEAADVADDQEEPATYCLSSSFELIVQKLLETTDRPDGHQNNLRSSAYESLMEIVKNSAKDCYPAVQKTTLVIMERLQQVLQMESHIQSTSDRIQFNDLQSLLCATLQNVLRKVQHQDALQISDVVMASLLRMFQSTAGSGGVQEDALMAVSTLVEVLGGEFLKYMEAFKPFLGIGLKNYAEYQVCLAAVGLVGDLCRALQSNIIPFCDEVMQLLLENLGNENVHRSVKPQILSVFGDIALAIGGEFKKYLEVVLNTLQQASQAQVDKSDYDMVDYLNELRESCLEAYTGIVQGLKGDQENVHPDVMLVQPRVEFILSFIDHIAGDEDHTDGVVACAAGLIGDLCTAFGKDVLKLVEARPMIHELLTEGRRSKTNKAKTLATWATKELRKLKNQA

The term Kd denotes a measure of binding affinity in units of concentration. Take B1: the Kd in assay [1] stood at 0.823 µM; in assay [2], 0.985 µM.

Turning to AKKKLREYQQRN[pS]PGVPTGAKKKKKIKN [GM130-NLS phospho-S25 (synthetic peptide with a phosphate moiety on Ser-25 of GM130, a.a. 13-40)], the Kd was found to be 2.1 µM in assay [3] and 0.27 µM in assay [4].

B2 gave a Kd in assay [5] of 0.227 µM.

For B3, in assay [5], the Kd came to 0.322 µM.

With AKKKLREYQQRNSPGVPTGAKKKKKIK [GM130-NLS WT peptide], in assay [6], the Kd stood at 6.9 µM.
